Measured values from patent publication US20100233154A1, “TARGETED BINDING AGENTS DIRECTED TO HEPARANASE AND USES THEREOF 463” (MedImmune Limited, priority 2008, published 2010).

T1: recombinant human heparanase (Homo sapiens, UniProt Q9Y251)
T1 construct: Heparanase 8 and 50 kDa sub-units were cloned into pacGP67 as Sma 1-EcoR1 fragments; made in house; host or cells: Hi5 insect cells, baculovirus (pFastBac Dual)
T1 sequence (Q9Y251 158-543 limits assumed): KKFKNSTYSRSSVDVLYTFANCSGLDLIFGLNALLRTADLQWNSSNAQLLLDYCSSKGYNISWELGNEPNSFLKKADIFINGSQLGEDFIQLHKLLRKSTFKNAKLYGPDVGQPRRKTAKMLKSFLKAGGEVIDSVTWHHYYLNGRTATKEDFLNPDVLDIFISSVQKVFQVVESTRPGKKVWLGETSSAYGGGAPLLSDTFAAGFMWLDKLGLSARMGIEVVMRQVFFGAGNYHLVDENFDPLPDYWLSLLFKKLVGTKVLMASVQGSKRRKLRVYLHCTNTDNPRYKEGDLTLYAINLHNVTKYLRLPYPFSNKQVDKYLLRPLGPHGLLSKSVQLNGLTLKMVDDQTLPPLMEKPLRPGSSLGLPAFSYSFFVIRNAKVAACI
T1 sequence (Q9Y251 36-109 limits assumed): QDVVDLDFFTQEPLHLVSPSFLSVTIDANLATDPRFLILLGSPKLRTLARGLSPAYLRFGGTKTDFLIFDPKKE

T2: human heparanase (Homo sapiens, UniProt Q9Y251)
T2 sequence (Q9Y251 36-543): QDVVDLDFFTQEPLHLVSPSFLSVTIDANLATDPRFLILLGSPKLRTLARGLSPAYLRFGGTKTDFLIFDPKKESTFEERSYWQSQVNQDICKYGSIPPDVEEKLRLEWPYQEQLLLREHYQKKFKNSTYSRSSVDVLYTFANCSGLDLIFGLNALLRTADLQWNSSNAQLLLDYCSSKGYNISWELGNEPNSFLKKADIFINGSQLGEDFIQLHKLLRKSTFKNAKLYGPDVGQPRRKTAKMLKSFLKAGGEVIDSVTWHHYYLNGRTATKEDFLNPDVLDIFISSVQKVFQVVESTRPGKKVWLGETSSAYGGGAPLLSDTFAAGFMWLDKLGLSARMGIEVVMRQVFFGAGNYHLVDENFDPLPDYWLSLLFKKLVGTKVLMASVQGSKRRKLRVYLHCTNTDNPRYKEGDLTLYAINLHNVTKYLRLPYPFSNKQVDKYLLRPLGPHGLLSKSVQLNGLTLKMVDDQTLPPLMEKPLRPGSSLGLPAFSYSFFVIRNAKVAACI

T3: recombinant heparanase captured with rabbit anti-heparanase antibody (Homo sapiens, UniProt Q9Y251)
T3 construct: Heparanase 8 and 50 kDa sub-units were cloned into pacGP67 as Sma 1-EcoR1 fragments; made in house; host or cells: Hi5 insect cells, baculovirus (pFastBac Dual)
T3 sequence (Q9Y251 158-543 limits assumed): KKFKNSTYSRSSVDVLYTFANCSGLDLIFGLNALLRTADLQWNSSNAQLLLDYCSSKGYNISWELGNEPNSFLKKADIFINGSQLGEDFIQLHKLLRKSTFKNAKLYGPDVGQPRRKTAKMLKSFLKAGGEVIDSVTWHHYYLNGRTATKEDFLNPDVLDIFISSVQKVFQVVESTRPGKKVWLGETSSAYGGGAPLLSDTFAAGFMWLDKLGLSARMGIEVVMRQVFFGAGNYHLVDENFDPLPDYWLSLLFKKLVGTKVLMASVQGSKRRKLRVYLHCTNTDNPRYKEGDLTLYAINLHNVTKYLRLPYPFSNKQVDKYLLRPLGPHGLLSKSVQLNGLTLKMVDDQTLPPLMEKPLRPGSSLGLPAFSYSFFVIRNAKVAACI
T3 sequence (Q9Y251 36-109 limits assumed): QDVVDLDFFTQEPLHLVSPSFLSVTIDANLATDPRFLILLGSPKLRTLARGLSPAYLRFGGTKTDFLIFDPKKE

T4: murine heparanase (Mus musculus, UniProt Q6YGZ1)
T4 construct: made in house; host or cells: Hek293 cells (conditioned medium), inferred for the ELISA
T4 sequence (Q6YGZ1 28-535): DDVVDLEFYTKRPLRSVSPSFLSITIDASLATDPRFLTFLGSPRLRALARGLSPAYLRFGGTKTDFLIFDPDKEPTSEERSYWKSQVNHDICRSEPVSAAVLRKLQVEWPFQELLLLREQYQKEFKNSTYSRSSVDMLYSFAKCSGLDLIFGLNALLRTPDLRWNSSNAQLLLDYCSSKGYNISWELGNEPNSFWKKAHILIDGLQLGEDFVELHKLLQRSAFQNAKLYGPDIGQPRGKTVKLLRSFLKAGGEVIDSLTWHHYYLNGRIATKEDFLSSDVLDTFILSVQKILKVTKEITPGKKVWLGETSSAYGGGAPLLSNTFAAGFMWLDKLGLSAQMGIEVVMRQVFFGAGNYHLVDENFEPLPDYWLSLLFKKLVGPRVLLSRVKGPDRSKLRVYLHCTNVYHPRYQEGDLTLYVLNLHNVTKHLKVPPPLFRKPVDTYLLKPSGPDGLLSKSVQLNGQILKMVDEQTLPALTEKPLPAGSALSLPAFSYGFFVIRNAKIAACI

T5: Recombinant Hpa1 (Homo sapiens, UniProt Q9Y251)
T5 construct: Heparanase 8 and 50 kDa sub-units were cloned into pacGP67 as Sma 1-EcoR1 fragments; made in house; host or cells: Hi5 insect cells, baculovirus (pFastBac Dual)
T5 sequence (Q9Y251 158-543 limits assumed): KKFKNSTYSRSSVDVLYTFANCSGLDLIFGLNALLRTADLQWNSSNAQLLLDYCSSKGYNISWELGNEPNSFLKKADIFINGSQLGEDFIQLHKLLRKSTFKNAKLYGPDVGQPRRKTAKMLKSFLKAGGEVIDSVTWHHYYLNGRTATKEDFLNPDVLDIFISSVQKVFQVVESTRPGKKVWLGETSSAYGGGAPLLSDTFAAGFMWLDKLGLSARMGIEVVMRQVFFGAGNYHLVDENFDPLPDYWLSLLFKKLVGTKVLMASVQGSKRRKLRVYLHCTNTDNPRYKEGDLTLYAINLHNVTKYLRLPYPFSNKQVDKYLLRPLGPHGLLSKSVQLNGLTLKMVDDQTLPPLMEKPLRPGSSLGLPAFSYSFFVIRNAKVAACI
T5 sequence (Q9Y251 36-109 limits assumed): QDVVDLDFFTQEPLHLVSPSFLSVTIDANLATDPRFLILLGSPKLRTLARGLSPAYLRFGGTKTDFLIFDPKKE


Experiments:
[1] = target: T1, recombinant human heparanase; assay: ELISA binding to directly coated recombinant human heparanase
Experimental: (§1) Titres of antibodies from Campaigns 1 and 2 were determined in an ELISA. Costar 3368 medium binding plates were coated directly with recombinant human heparanase or plates were coated with Rabbit anti-heparanase antibody (Raybiotech, Cat. IP-14-155) to capture recombinant heparanase. Directly coated heparanase was detected in three separate plates by mouse (InSight Cat. INS-26-1-0000), goat (Santa Cruz, Cat. sc26136) or rabbit (Raybiotech, Cat. IP-14-155) anti-heparanase antibodies, and quantified using appropriate secondary antibodies. Antibody captured heparanase was detected using mouse anti-heparanase (Insight Cat. INS-26-1-0000). At the end of the immunisation program, fusions were performed using mouse myeloma cells and lymphocytes isolated from the spleens and lymph nodes of the immunised mice by means of electroporation, as described in Example 2.
(§2) Initial screening to detect antibodies binding to human heparanase in both direct coating and antibody capture ELISAs as described above identified 800 hybridomas for further testing; 535 IgG2 from Campaign 1 and 2 and 265 IgG4 from Campaign 2. Enzyme inhibition assays and cross species binding to cynomolgus and murine heparanase, in an antibody capture ELISA, identifed 12 antibodies that were taken forward for sub-cloning to provide purified antibodies for further analysis. Subsequently, confirmation of activity against human heparanase (FIGS. 3 and 4) and inhibition of recombinant cynomolgus and murine heparanase activity in the HS-cryptate degradation assay (FIG. 5a-c), together with sequence analysis, identified 8 antibodies that are described in the table below.

[2] = target: T2, human heparanase; assay: Cross species capture ELISA, human heparanase; format: binding
Experimental: (§3) Initially, cross species binding to human, murine and cynomolgus heparanase was determined in an ELISA assay in which heparanase was captured onto plates using a rabbit anti-heparanase antibody (Raybiotech, Cat. IP-14-155). Exhaustive supernatants were added to the plates at a final dilution of 1:5 and bound antibody detected with a rabbit anti-human IgG Fc.

[3] = target: T3, recombinant heparanase captured with rabbit anti-heparanase antibody; assay: ELISA binding to antibody-captured heparanase; settings: antibody capture
Experimental: as §1, §2

[4] = test system: cynomolgus heparanase; assay: Cross species capture ELISA, cynomolgus heparanase; format: binding; settings: min 0.06, max 1.5 OD units
Experimental: as §3

[5] = target: T4, murine heparanase; assay: Cross species capture ELISA, murine heparanase; format: binding; settings: min 0.06, max 0.9 OD units
Experimental: as §3

[6] = target: T5, Recombinant Hpa1; assay: Medium resolution Biacore affinity; format: binding
Experimental: For medium resolution Biacore™ tests, cloned and purified antibodies were used. Each of three purified antibodies (10E9.1, 15A1.2, and 15A11.1) were captured onto a high-density goat anti-human antibody surface over a CM4 Biacore™ chip. Recombinant Hpa1 was diluted to the desired concentration (1 nM and 10 nM) in 10 mM HEPES, 150 mM NaCl, 0.005% tween-20, 0.1 mg per ml BSA pH7.4 (25° C.) immediately prior to injection. Data were fit globally to a 1:1 interaction model with a term for mass transport included. The resulting KD values are summarised below in Table 4.

[7] = test system: MDA MB231-Hpa1#4 cells; assay: Heparanase expression in cells cultured with antibody (Western blot); format: cell-based, human; settings: 25 μg per ml antibody, 72 hrs, compared to untreated or IgG2 control
Experimental: MDA MB231-Hpa1#4 cells were cultured in the presence of 25 μg per ml anti-human heparanase antibody or control IgG2 antibody (Sigma Cat. No. 1504-1MG) for 72 hrs. Following the removal of culture medium, protein extracts were prepared from the cells in 100 μl RIPA buffer and separated on […] gels and transferred to nitrocellulose as described above. Western blots were probed with an anti-heparanase antibody that detected only pro-heparanase (SantaCruz Cat. No. SC25825).

[8] = test system: MCF7-Hpa1#19 xenograft; assay: Subcutaneous xenograft tumour growth, MCF7-Hpa1#19; format: in vivo, SCID mice; settings: once weekly i.p.; 10E9.1 at 7.5 or 15 mg per kg
Experimental: (§4) MCF7-Hpa1#19 and HCT116 tumour cells were harvested from sub-confluent cultures. A total of 5×10^6 (MCF7-Hpa1#19) or 10^7 (HCT116) tumour cells were inoculated subcutaneously into the flank of male SCID mice. HCT116 tumour cells were implanted in PBS; […] cells were implanted in PBS containing 50% matrigel.
(§5) When tumours had attained ˜200 mm^3, tumour bearing mice were randomised into treatment groups and dosed with the following; PBS; an isotype matched control IgG2 antibody, 15 mg per kg; anti-heparanase antibody 10E9.1, 7.5 or 15 mg per kg. All treatments were administered once weekly i.p. Tumour growth was measured twice per week using calipers and tumour volumes calculated according to an ellipsoid volume is formula (3.142/6×length×width×width) from measures of the largest tumour diameter and two opposing widths (FIG. 11).

[9] = test system: HCT116 xenograft; assay: Subcutaneous xenograft tumour growth, HCT116; format: in vivo, SCID mice; settings: once weekly i.p.; 10E9.1 at 15 mg per kg
Experimental: as §4, §5

[10] = purified antibody captured on CM4 chip, Hpa1 1 nM and 10 nM, 25° C.

Binding to direct coated heparanase [1] [OD units]	Binding to heparanase Human [2] [OD units]	Binding to captured heparanase [3] [OD units]	Binding to heparanase Cyno [4] [OD units]	Binding to heparanase Mouse [5] [OD units]	Kd ([6]; 1:1 interaction model with mass transport term) [nM]	ka [6, 10] [M⁻¹ s⁻¹]	kd [6, 10] [s⁻¹]	Molecule	Inhibition of heparanase expression [7]	Tumour growth inhibition [8]	Tumour growth inhibition [9]
3.63	1.84	3.82	1.64	0.61	–	–	–	16G1.1: human anti-heparanase monoclonal antibody, G4κ; VH SEQ ID NO 14, VL SEQ ID NO 16 (antibody, listed as Homo Sapiens, V domains shown) VH: QVQLVESGGGVVQPGRSLRLSCAASGFTFSSYGMHWVRQAPGKGLEWVAVIWYDGSNKYYADSVKGRFTISRDNSKNTLNLQMNSLRAEDTAVYYCGRDPGTYHYYYHGMDVWGQGTTVTVSS VL: YIVMTQSPLSLPVTPGEPASISCRSSQSLLHSNGYNFLDWYLQKPGQSPQLLIYLGSNRASGVPDRFSGSGSGTDFTLKINRVEAEDVGVYYCMQALQTPITFGQGTRLEIK	–	–	–
0.08	0.19	0.92	0.11	0.14	0.0859	1.88e+06	0.000105	15A1.2: fully human anti-heparanase monoclonal antibody, G2κ; VH SEQ ID NO 6, VL SEQ ID NO 8; ATCC PTA-9491 (antibody, listed as Homo Sapiens, V domains shown, fully human anti-heparanase monoclonal antibody, G2κ; ATCC PTA-9491) VH: QVQLVQSGAEVKKPGASVKVSCKVSGYTLTELSMHWVRQAPGKGLEWMGGFDPEDGETIFAQKFQGRVTMTEDTSTDTAYMELSSLRSEDTAVYYCATGLRFLEWFLWGWDVWGQGTTVTVSS VL: DIQMTQSPSSVSASVGDRVTITCRASQGISNWLAWYQQTPGKAPQLLIYGASSLQSGVPSRFSGSGSGTDFTLTISSLQPEDFATYYCQQADSFPPTFGQGTKVEIK	significant inhibition of heparanase expression	not inhibited	not inhibited
